These results are taken from IntAct's records for PubMed 31515488.

B1: Medium-chain acyl-CoA ligase ACSF2, mitochondrial (Homo sapiens), Q96CM8 (parent)
chain: MAVYVGMLRLGRLCAGSSGVLGARAALSRSWQEARLQGVRFLSSREVDRMVSTPIGGLSYVQGCTKKHLNSKTVGQCLETTAQRVPEREALVVLHEDVRLTFAQLKEEVDKAASGLLSIGLCKGDRLGMWGPNSYAWVLMQLATAQAGIILVSVNPAYQAMELEYVLKKVGCKALVFPKQFKTQQYYNVLKQICPEVENAQPGALKSQRLPDLTTVISVDAPLPGTLLLDEVVAAGSTRQHLDQLQYNQQFLSCHDPINIQFTSGTTGSPKGATLSHYNIVNNSNILGERLKLHEKTPEQLRMILPNPLYHCLGSVAGTMMCLMYGATLILASPIFNGKKALEAISRERGTFLYGTPTMFVDILNQPDFSSYDISTMCGGVIAGSPAPPELIRAIINKINMKDLVVAYGTTENSPVTFAHFPEDTVEQKAESVGRIMPHTEARIMNMEAGTLAKLNTPGELCIRGYCVMLGYWGEPQKTEEAVDQDKWYWTGDVATMNEQGFCKIVGRSKDMIIRGGENIYPAELEDFFHTHPKVQEVQVVGVKDDRMGEEICACIRLKDGEETTVEEIKAFCKGKISHFKIPKYIVFVTNYPLTISGKIQKFKLREQMERHLNL
partner: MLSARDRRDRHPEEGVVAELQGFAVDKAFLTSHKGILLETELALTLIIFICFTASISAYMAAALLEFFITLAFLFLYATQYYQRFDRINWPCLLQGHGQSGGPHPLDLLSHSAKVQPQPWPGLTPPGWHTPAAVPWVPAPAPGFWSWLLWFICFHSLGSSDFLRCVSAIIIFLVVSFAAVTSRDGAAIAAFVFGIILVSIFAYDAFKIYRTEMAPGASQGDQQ
B2: E3 ubiquitin-protein ligase RNF185 (Homo sapiens), Q96GF1 (parent)
chain: MASKGPSASASPENSSAGGPSGSSNGAGESGGQDSTFECNICLDTAKDAVISLCGHLFCWPCLHQWLETRPNRQVCPVCKAGISRDKVIPLYGRGSTGQQDPREKTPPRPQGQRPEPENRGGFQGFGFGDGGFQMSFGIGAFPFGIFATAFNINDGRPPPAVPGTPQYVDEQFLSRLFLFVALVIMFWLLIA
B3: DNA endonuclease RBBP8 (Homo sapiens), Q99708 (parent)
chain: MNISGSSCGSPNSADTSSDFKDLWTKLKECHDREVQGLQVKVTKLKQERILDAQRLEEFFTKNQQLREQQKVLHETIKVLEDRLRAGLCDRCAVTEEHMRKKQQEFENIRQQNLKLITELMNERNTLQEENKKLSEQLQQKIENDQQHQAAELECEEDVIPDSPITAFSFSGVNRLRRKENPHVRYIEQTHTKLEHSVCANEMRKVSKSSTHPQHNPNENEILVADTYDQSQSPMAKAHGTSSYTPDKSSFNLATVVAETLGLGVQEESETQGPMSPLGDELYHCLEGNHKKQPFEESTRNTEDSLRFSDSTSKTPPQEELPTRVSSPVFGATSSIKSGLDLNTSLSPSLLQPGKKKHLKTLPFSNTCISRLEKTRSKSEDSALFTHHSLGSEVNKIIIQSSNKQILINKNISESLGEQNRTEYGKDSNTDKHLEPLKSLGGRTSKRKKTEEESEHEVSCPQASFDKENAFPFPMDNQFSMNGDCVMDKPLDLSDRFSAIQRQEKSQGSETSKNKFRQVTLYEALKTIPKGFSSSRKASDGNCTLPKDSPGEPCSQECIILQPLNKCSPDNKPSLQIKEENAVFKIPLRPRESLETENVLDDIKSAGSHEPIKIQTRSDHGGCELASVLQLNPCRTGKIKSLQNNQDVSFENIQWSIDPGADLSQYKMDVTVIDTKDGSQSKLGGETVDMDCTLVSETVLLKMKKQEQKGEKSSNEERKMNDSLEDMFDRTTHEEYESCLADSFSQAADEEEELSTATKKLHTHGDKQDKVKQKAFVEPYFKGDERETSLQNFPHIEVVRKKEERRKLLGHTCKECEIYYADMPAEEREKKLASCSRHRFRYIPPNTPENFWEVGFPSTQTCMERGYIKEDLDPCPRPKRRQPYNAIFSPKGKEQKT
B4: Notch homolog 2 N-terminal-like protein A (Homo sapiens), Q7Z3S9 (parent)
chain: MCVTYHNGTGYCKCPEGFLGEYCQHRDPCEKNRCQNGGTCVAQAMLGKATCRCASGFTGEDCQYSTSHPCFVSRPCLNGGTCHMLSRDTYECTCQVGFTGKECQWTDACLSHPCANGSTCTTVANQFSCKCLTGFTGQKCETDVNECDIPGHCQHGGTCLNLPGSYQCQCLQGFTGQYCDSLYVPCAPSPCVNGGTCRQTGDFTFECNCLPETVRRGTELWERDREVWNGKEHDEN
partner: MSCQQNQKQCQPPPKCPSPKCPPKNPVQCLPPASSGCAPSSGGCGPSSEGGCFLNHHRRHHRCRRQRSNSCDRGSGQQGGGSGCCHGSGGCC
B5: Cyclin-D1-binding protein 1 (Homo sapiens), O95273 (parent)
chain: MASATAPAAAVPTLASPLEQLRHLAEELRLLLPRVRVGEAQETTEEFNREMFWRRLNEAAVTVSREATTLTIVFSQLPLPSPQETQKFCEQVHAAIKAFIAVYYLLPKDQGITLRKLVRGATLDIVDGMAQLMEVLSVTPTQSPENNDLISYNSVWVACQQMPQIPRDNKAAALLMLTKNVDFVKDAHEEMEQAVEECDPYSGLLNDTEENNSDNHNHEDDVLGFPSNQDLYWSEDDQELIIPCLALVRASKACLKKIRMLVAENGKKDQVAQLDDIVDISDEISPSVDDLALSIYPPMCHLTVRINSAKLVSVLKKALEITKASHVTPQPEDSWIPLLINAIDHCMNRIKELTQSELEL
partner: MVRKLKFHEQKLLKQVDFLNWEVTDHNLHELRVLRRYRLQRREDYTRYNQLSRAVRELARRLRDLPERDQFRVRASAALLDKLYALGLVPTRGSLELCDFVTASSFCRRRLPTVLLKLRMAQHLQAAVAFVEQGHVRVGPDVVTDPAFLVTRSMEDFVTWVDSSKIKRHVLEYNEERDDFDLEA
B6: Coiled-coil domain-containing protein 68 (Homo sapiens), Q9H2F9 (parent)
chain: MTTVTVTTEIPPRDKMEDNSALYESTSAHIIEETEYVKKIRTTLQKIRTQMFKDEIRHDSTNHKLDAKHCGNLQQGSDSEMDPSCCSLDLLMKKIKGKDLQLLEMNKENEVLKIKLQASREAGAAALRNVAQRLFENYQTQSEEVRKKQEDSKQLLQVNKLEKEQKLKQHVENLNQVAEKLEEKHSQITELENLVQRMEKEKRTLLERKLSLENKLLQLKSSATYGKSCQDLQREISILQEQISHLQFVIHSQHQNLRSVIQEMEGLKNNLKEQDKRIENLREKVNILEAQNKELKTQVALSSETPRTKVSKAVSTSELKTEGVSPYLMLIRLRK
B7: Ornithine decarboxylase antizyme 3 (Homo sapiens), Q9UMX2 (parent)
chain: MPCKRCRPSVYSLSYIKRGKTRNYLYPIWSPYAYYLYCYKYRITLREKMLPRCYKSITYKEEEDLTLQPRSCLQCSESLVGLQEGKSTEQGNHDQLKELYSAGNLTVLATDPLLHQDPVQLDFHFRLTSQTSAHWHGLLCDRRLFLDIPYQALDQGNRESLTATLEYVEEKTNVDSVFVNFQNDRNDRGALLRAFSYMGFEVVRPDHPALPPLDNVIFMVYPLERDVGHLPSEPP
B8: Amphiphysin (Homo sapiens), P49418 (parent)
chain: MADIKTGIFAKNVQKRLNRAQEKVLQKLGKADETKDEQFEEYVQNFKRQEAEGTRLQRELRGYLAAIKGMQEASMKLTESLHEVYEPDWYGREDVKMVGEKCDVLWEDFHQKLVDGSLLTLDTYLGQFPDIKNRIAKRSRKLVDYDSARHHLEALQSSKRKDESRISKAEEEFQKAQKVFEEFNVDLQEELPSLWSRRVGFYVNTFKNVSSLEAKFHKEIAVLCHKLYEVMTKLGDQHADKAFTIQGAPSDSGPLRIAKTPSPPEEPSPLPSPTASPNHTLAPASPAPARPRSPSQTRKGPPVPPLPKVTPTKELQQENIISFFEDNFVPEISVTTPSQNEVPEVKKEETLLDLDFDPFKPEVTPAGSAGVTHSPMSQTLPWDLWTTSTDLVQPASGGSFNGFTQPQDTSLFTMQTDQSMICNLAESEQAPPTEPKAEEPLAAVTPAVGLDLGMDTRAEEPVEEAVIIPGADADAAVGTLVSAAEGAPGEEAEAEKATVPAGEGVSLEEAKIGTETTEGAESAQPEAEELEATVPQEKVIPSVVIEPASNHEEEGENEITIGAEPKETTEDAAPPGPTSETPELATEQKPIQDPQPTPSAPAMGAADQLASAREASQELPPGFLYKVETLHDFEAANSDELTLQRGDVVLVVPSDSEADQDAGWLVGVKESDWLQYRDLATYKGLFPENFTRRLD
partner: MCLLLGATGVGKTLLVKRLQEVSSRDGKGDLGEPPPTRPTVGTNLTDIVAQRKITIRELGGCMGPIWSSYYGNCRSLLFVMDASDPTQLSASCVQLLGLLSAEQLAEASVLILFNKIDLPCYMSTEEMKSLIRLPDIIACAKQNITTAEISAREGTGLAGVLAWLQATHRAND
B9: Ligand of Numb protein X 2 (Homo sapiens), Q8N448 (parent)
chain: MGTTSDEMVSVEQTSSSSLNPLCFECGQQHWTRENHLYNYQNEVDDDLVCHICLQPLLQPLDTPCGHTFCYKCLRNFLQEKDFCPLDRKRLHFKLCKKSSILVHKLLDKLLVLCPFSSVCKDVMQRCDLEAHLKNRCPGASHRRVALERRKTSRTQAEIENENGPTLLDPAGTLSPEADCLGTGAVPVERHLTSASLSTWSEEPGLDNPAFEESAGADTTQQPLSLPEGEITTIEIHRSNPYIQLGISIVGGNETPLINIVIQEVYRDGVIARDGRLLAGDQILQVNNYNISNVSHNYARAVLSQPCNTLHLTVLRERRFGNRAHNHSDSNSPREEIFQVALHKRDSGEQLGIKLVRRTDEPGVFILDLLEGGLAAQDGRLSSNDRVLAINGHDLKYGTPELAAQIIQASGERVNLTIARPGKPQPGNTIREAGNHSSSSQHHTPPPYYSRPSSHKDLTQCVTCQEKHITVKKEPHESLGMTVAGGRGSKSGELPIFVTSVPPHGCLARDGRIKRGDVLLNINGIDLTNLSHSEAVAMLKASAASPAVALKALEVQIVEEATQNAEEQPSTFSENEYDASWSPSWVMWLGLPSTLHSCHDIVLRRSYLGSWGFSIVGGYEENHTNQPFFIKTIVLGTPAYYDGRLKCGDMIVAVNGLSTVGMSHSALVPMLKEQRNKVTLTVICWPGSLV
partner: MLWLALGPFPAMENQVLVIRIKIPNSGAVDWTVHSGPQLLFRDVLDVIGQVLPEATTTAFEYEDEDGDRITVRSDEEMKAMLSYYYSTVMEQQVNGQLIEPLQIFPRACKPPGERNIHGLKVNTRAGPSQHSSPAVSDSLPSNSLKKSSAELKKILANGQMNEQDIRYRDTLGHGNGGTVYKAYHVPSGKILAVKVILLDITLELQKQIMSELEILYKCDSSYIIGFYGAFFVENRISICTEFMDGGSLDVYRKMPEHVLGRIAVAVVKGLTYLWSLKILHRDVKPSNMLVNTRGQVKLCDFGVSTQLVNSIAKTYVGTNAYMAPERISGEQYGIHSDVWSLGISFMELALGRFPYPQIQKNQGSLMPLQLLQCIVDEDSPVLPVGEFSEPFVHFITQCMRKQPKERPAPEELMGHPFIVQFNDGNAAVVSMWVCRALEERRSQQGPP

One assay covers variants of B1. The following applies: with cklf5_human CMTM5, Q96DZ9.
For A34V, the “effect of a mutation on the interaction” value is given as “disrupting interaction strength”.

In a further assay the parent is B2. Conditions: with ub2e3_human UBE2E3, Q969T4.
Sequence of ub2e3_human UBE2E3, Q969T4 (Q969T4 whole entry): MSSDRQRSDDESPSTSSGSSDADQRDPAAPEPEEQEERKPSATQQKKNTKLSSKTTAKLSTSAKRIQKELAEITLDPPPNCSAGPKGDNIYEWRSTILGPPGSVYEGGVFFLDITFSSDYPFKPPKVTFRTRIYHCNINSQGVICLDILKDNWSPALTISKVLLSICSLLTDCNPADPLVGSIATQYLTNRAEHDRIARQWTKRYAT
Regarding A17T, the “effect of a mutation on the interaction” value is on record as “with no effect”.

Another assay covers variants of B3. Conditions: with lims1_human LIMS1, P48059.
Sequence of lims1_human LIMS1, P48059 (P48059 whole entry): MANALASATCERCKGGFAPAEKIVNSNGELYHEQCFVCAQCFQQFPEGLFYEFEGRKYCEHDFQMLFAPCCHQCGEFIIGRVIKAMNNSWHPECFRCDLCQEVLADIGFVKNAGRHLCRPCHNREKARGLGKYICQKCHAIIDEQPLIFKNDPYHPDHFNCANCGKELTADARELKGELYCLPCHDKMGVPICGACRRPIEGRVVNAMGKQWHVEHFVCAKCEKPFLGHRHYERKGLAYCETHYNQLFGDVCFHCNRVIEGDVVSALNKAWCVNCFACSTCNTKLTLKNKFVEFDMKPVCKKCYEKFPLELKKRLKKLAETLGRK
In the case of E320K, the “effect of a mutation on the interaction” value is given as “with no effect”.

The variants in a further assay derive from B4. Conditions: with lce3e_human LCE3E.
For the variant A115T, the “effect of a mutation on the interaction” value is on record as “with no effect”. The same measure, in the same setting: to R74Q belongs “with no effect”.

Variants of B5 are the subject of the next assay. Conditions: with imp3_human IMP3, Q9NV31.
As to I277T, the “effect of a mutation on the interaction” value is “disrupting interaction strength”.

The variants in a further assay derive from B6. The following applies: with tfp11_human TFIP11, Q9UBB9.
Sequence of tfp11_human TFIP11, Q9UBB9 (Q9UBB9 whole entry): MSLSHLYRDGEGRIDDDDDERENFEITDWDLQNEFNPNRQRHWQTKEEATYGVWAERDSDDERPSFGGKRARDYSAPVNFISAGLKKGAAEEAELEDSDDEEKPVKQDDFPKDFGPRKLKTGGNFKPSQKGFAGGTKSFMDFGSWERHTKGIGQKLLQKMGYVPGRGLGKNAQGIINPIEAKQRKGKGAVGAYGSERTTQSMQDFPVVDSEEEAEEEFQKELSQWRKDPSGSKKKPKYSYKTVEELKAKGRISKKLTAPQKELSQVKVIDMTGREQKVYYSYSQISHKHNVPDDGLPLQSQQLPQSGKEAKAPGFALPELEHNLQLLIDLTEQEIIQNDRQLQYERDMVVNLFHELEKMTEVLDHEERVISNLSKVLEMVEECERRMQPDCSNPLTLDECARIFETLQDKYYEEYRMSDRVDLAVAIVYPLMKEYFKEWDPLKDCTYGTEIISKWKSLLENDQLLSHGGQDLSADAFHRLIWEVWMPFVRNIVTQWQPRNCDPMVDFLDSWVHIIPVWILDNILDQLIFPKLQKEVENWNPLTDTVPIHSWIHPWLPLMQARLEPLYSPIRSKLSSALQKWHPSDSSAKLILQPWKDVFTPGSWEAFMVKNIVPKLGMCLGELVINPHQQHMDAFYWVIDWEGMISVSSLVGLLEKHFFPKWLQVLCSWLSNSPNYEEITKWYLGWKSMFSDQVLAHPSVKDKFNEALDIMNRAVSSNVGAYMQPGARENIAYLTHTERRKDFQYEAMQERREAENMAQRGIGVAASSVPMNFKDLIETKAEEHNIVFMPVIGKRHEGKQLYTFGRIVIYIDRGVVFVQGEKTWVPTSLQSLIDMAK
Turning to D151G, the “effect of a mutation on the interaction” value is “with no effect”.

Variants of B7 are the subject of another assay. The following applies: with azin1_human AZIN1, O14977.
Sequence of azin1_human AZIN1, O14977 (O14977 whole entry): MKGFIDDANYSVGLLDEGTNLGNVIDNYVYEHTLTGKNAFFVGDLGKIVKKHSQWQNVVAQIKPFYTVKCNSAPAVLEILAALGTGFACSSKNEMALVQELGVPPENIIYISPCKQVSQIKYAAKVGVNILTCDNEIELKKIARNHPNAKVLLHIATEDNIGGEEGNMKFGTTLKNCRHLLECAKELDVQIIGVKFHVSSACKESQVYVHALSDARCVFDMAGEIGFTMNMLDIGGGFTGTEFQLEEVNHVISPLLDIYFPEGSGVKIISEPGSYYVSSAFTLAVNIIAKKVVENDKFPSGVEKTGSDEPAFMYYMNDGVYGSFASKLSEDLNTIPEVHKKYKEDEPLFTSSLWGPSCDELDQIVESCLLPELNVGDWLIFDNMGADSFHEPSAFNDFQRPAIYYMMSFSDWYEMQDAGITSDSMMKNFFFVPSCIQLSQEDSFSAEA
Turning to V174A, the “effect of a mutation on the interaction” value is on record as “with no effect”. Same read-out and setting: to R193Q belongs “with no effect”.

Variants of B8 are the subject of the next assay. Conditions: with arl16_human ARL16, Q0P5N6.
For the variant M376I, the “effect of a mutation on the interaction” value is reported as “with no effect”.

Another assay covers variants of B9. The following applies: with mp2k5_human MAP2K5, Q13163.
On to S198P, for which the “effect of a mutation on the interaction” value was “with no effect”.
